This experiment has as its target T1, domain V of human β2GPI (human, UniProt P02749 263-345).
T1 sequence (looked up): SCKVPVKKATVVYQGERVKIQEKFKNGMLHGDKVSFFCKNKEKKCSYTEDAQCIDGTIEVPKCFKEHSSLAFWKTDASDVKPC
Description: ITC. (Isothermal titration calorimetry measures the heat released or taken up as one component is titrated into another.)

What is called Kd is the equilibrium constant for the complex coming apart. Low readings indicate a tighter complex, high ones a looser complex. What is called stoichiometry N is the number of molecules, sites or subunits per partner or assembly.

B1: Asn36/Asp mutant of mouse A1 (domain or fragment)
chain: not shown
For the molecule B1, the Kd worked out at 14 µM, the dH is -4.3 ± 0.2 kcal/mol and the “stoichiometry N” value stood at 1.04 ± 0.03.

The values are drawn from PMC4351136 (The FEBS journal, 2015).
